In PMC5815017:

Experiments:
[1] = target: T1, Spo0J (ParB) (Bacillus subtilis) (UniProt P26497); test: SPR; conditions: apparent Kd; SPR (ReDCaT, Biacore T200), HBS-EP+: 10 mM HEPES pH 7.4, 150 mM NaCl, 3 mM EDTA, 0.005% Surfactant P20, 25 C; ParB given as dimer
T1 sequence: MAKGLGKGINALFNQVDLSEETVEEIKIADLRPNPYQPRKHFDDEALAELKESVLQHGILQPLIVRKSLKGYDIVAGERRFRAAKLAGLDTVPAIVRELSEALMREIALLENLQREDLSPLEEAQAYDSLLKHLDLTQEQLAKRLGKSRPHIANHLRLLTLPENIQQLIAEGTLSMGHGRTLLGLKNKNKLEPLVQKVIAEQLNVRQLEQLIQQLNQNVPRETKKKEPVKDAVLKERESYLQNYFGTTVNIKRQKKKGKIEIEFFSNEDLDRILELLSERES

[2] = target: T2, ParB (Caulobacter crescentus) (UniProt B8GW30); test: SPR; conditions: value assigned by figure order; SPR (ReDCaT, Biacore T200), HBS-EP+: 10 mM HEPES pH 7.4, 150 mM NaCl, 3 mM EDTA, 0.005% Surfactant P20, 25 C; ParB given as dimer
T2 sequence: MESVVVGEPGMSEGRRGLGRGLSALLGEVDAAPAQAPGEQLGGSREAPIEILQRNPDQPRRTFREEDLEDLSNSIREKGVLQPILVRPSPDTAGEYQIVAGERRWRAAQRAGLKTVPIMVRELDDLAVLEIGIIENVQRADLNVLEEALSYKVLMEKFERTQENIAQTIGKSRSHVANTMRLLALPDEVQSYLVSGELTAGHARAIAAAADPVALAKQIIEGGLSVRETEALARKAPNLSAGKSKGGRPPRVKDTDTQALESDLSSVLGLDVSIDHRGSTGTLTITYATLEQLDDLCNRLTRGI

| Sequence | Kd [1] [nM] | Kd [2] [nM] |
| --- | --- | --- |
| AGAATGTTCCACGTGAAACAAAGA / TCTTTGTTTCACGTGGAACATTCTCCTACCCTACGTCCTCCTGC [B. subtilis parS 359] | 114 | – |
| CGATGTTTCCACGTGAAACAAGGC / GCCTTGTTTCACGTGGAAACATCGCCTACCCTACGTCCTCCTGC [parS site 7] | – | 144 |
